In publication PMC3630167 (2013):
No end group written: not given here.

B1: mAb F26G3 IgG1 subclass switch variant (antibody, V domains shown)
VH: EVQLVESGGGLVQPKGSLKLSCAASGFTFNTYAMNWVRQAPGKGLEWVARIRSKSNNYATYYADSVKDRFTISRDDSQSMLYLQMNNLKTEDTAMYYCVRGYYGWDYWGQGTSVTVSS
VL: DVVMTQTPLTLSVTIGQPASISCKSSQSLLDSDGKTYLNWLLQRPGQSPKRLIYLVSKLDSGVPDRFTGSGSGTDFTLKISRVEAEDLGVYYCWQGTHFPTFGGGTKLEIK
B2: mAb F24F2 IgG1 subclass switch variant (antibody, V domains shown)
VH: EVQLVESGGGLVQPKGSLKLSCAASGFTFNTYAMNWVRQAPGKGLEWVARIRSKSNNYATYYADSVKDRFTISRDDSQSMLYLQMNNLKTEDTAMYYCVRGLRYLDYWGQGTTLTVSS
VL: not shown
B3: mAb F24F2 IgG2b subclass switch variant (antibody, V domains shown)
VH: EVQLVESGGGLVQPKGSLKLSCAASGFTFNTYAMNWVRQAPGKGLEWVARIRSKSNNYATYYADSVKDRFTISRDDSQSMLYLQMNNLKTEDTAMYYCVRGLRYLDYWGQGTTLTVSS
VL: not shown
B4: mAb F26G3 IgG2a subclass switch variant (antibody, V domains shown)
VH: EVQLVESGGGLVQPKGSLKLSCAASGFTFNTYAMNWVRQAPGKGLEWVARIRSKSNNYATYYADSVKDRFTISRDDSQSMLYLQMNNLKTEDTAMYYCVRGYYGWDYWGQGTSVTVSS
VL: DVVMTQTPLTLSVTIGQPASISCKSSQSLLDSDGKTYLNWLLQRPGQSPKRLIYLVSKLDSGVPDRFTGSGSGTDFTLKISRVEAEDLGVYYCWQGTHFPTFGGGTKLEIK
B5: mAb F26G3 IgG2b subclass switch variant (antibody, V domains shown)
VH: EVQLVESGGGLVQPKGSLKLSCAASGFTFNTYAMNWVRQAPGKGLEWVARIRSKSNNYATYYADSVKDRFTISRDDSQSMLYLQMNNLKTEDTAMYYCVRGYYGWDYWGQGTSVTVSS
VL: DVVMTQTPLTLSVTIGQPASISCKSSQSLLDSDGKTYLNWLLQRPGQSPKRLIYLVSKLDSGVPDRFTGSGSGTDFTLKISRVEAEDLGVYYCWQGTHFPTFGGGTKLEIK
B6: mAb F24F2 IgG2a subclass switch variant (antibody, V domains shown)
VH: EVQLVESGGGLVQPKGSLKLSCAASGFTFNTYAMNWVRQAPGKGLEWVARIRSKSNNYATYYADSVKDRFTISRDDSQSMLYLQMNNLKTEDTAMYYCVRGLRYLDYWGQGTTLTVSS
VL: not shown

Target: T1, synthetic (γ-D-Glu)5 (not fully specified (residues 1, 2, 3, 4, 5))
T1 peptide: EEEEE

B1 and B2 are within 1.5-fold of each other in Kd: 13 µM for the first, 18 µM for the second.

First: B3
Second: B4
The Kd of the first is 5-fold lower: 9 µM for the first, 45 µM for the second. The first binds more tightly here.

First: B5
Second: B6
The Kd of the first is 2.7-fold lower: 6.7 µM for the first, 18 µM for the second. The first binds more tightly here.
